Reference: PMC4121139

Target: human serum albumin (human) (UniProt P02768)
Experiment: SPR

Q: “albumin-binding domain (ABD) derived from streptococcal protein G (domain or fragment)” was tested. Which Kd did it give?
A: 8.1 nM

Q: What about the koff of the same substance?
A: 0.00044 s⁻¹

Q: And the kon?
A: 54000 M⁻¹ s⁻¹
